These results are taken from patent US5856155, “Compounds and related methods for modulating potassium ion channels and assays for such compounds” (The Johns Hopkins University School Of Medicine, dated 1999).

T1: NH2-terminal domain of Drosophila Shal2 (Kv4 subfamily) (Drosophila, UniProt P17971-1)
T1 sequence: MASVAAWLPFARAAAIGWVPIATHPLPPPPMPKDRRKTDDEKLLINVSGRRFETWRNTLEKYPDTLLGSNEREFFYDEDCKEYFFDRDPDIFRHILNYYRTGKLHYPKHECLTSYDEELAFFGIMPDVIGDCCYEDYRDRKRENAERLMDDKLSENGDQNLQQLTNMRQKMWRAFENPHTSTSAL

T2: NH2-terminal domain of DRK1 (a.a. 1-182) (Kv2.1) (rat, UniProt P15387)
T2 sequence: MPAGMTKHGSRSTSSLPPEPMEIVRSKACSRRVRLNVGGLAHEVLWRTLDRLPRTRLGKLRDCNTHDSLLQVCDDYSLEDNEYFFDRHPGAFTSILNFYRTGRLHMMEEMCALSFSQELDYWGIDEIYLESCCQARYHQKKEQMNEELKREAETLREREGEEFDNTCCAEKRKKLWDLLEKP

T3: NH2-terminal domain of Drosophila Shaw2 (Kv3 subfamily) (Drosophila, UniProt P17972)
T3 sequence: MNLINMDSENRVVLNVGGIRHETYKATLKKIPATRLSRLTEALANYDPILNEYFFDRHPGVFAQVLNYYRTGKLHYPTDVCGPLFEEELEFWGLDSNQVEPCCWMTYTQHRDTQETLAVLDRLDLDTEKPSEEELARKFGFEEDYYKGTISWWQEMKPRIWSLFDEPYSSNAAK

T4: NH2-terminal domain of rshal1 (a.a. 1-228) (Kv4.2) (rat, UniProt Q63881)
T4 sequence: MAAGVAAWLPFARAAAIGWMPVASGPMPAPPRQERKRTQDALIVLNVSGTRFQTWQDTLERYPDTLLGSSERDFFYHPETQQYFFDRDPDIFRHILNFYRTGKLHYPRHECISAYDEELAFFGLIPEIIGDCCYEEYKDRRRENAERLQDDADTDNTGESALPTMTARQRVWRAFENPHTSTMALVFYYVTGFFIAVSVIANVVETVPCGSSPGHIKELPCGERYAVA

T5: NH2-terminal domain of NGK2b (a.a. 1-180) (Kv3.1) (rat, UniProt P25122)
T5 sequence: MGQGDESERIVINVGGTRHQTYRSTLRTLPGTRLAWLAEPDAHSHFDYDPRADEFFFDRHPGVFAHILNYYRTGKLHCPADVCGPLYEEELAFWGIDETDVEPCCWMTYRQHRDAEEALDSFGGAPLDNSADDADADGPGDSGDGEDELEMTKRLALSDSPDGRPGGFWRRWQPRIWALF

B1: ΔKvβ2(39-367) (other)
chain: YRNLGKSGLRVSCLGLGTWVTFGGQITDEMAEHLMTLAYDNGINLFDTAEVYAAGKAEVVLGNIIKKKGWRRSSLVITTKIFWGGKAETERGLSRKHIIEGLKASLERLQLEYVDVVFANRPDPNTPMEEIVRAMTHVINQGMAMYWGTSRWSSMEIMEAYSVARQFNLIPPICEQAEYHMFQREKVEVQLPELFHKIGVGAMTWSPLACGIVSGKYDSGIPPYSRASLKGYQWLKDKILSEEGRRQQAKLKELQAIAERLGCTLPQLAIAWCLRNEGVSSVLLGASNAEQLMENIGAIQVLPKLSSSIVHEIDSILGNKPYSKKDYRS
B2: Kvβ2 (a.a. 1-367) (other)
chain: MYPESTTGSPARLSLRQTGSPGMIYSTRYGSPKRQLQFYRNLGKSGLRVSCLGLGTWVTFGGQITDEMAEHLMTLAYDNGINLFDTAEVYAAGKAEVVLGNIIKKKGWRRSSLVITTKIFWGGKAETERGLSRKHIIEGLKASLERLQLEYVDVVFANRPDPNTPMEEIVRAMTHVINQGMAMYWGTSRWSSMEIMEAYSVARQFNLIPPICEQAEYHMFQREKVEVQLPELFHKIGVGAMTWSPLACGIVSGKYDSGIPPYSRASLKGYQWLKDKILSEEGRRQQAKLKELQAIAERLGCTLPQLAIAWCLRNEGVSSVLLGASNAEQLMENIGAIQVLPKLSSSIVHEIDSILGNKPYSKKDYRS
B3: ΔKvβ2(39-316) (other)
chain: YRNLGKSGLRVSCLGLGTWVTFGGQITDEMAEHLMTLAYDNGINLFDTAEVYAAGKAEVVLGNIIKKKGWRRSSLVITTKIFWGGKAETERGLSRKHIIEGLKASLERLQLEYVDVVFANRPDPNTPMEEIVRAMTHVINQGMAMYWGTSRWSSMEIMEAYSVARQFNLIPPICEQAEYHMFQREKVEVQLPELFHKIGVGAMTWSPLACGIVSGKYDSGIPPYSRASLKGYQWLKDKILSEEGRRQQAKLKELQAIAERLGCTLPQLAIAWCLRNEG
B4: Kvβ1 (a.a. 1-401) (other)
chain: MQVSIACTEHNLKSRNGEDRLLSKQSSTAPNVVNAARAKFRTVAIIARSLGTFTPQHHISLKESTAKQTGMKYRNLGKSGLRVSCLGLGTWVTFGGQISDEVAERLMTIAYESGVNLFDTAEVYAAGKAEVILGSIIKKKGWRRSSLVITTKLYWGGKAETERGLSRKHIIEGLKGSLQRLQLEYVDVVFANRPDSNTPMEEIVRAMTHVINQGMAMYWGTSRWSAMEIMEAYSVARQFNMIPPVCEQAEYHLFQREKVEVQLPELYHKIGVGAMTWSPLACGIISGKYGNGVPESSRASLKCYQWLKERIVSEEGRKQQNKLKDLSPIAERLGCTLPQLAVAWCLRNEGVSSVLLGSSTPEQLIENLGAIQVLPKMTSHVVNEIDNILRNKPYSKKDYRS

One experiment deals with ShBΔ(6-46) (Drosophila, UniProt P08510). Description: cell-based or functional assay.
The experiment “Kvβ1 (a.a. 1-401)” addresses B4. Description: cell-based or functional assay.
In experiment [1] the target is T6, COOH-terminal domain of RCK4 (CRCK4, a.a. 566-651) (rat, UniProt P15385). As to the kind of experiment: yeast two-hybrid, growth on medium lacking histidine; similar results with a β-galactosidase assay. An excerpt: (§1) FIG. 6A depicts the results of a yeast two-hybrid assay wherein YGH1 yeast cells were transformed by different pairwise combinations of the two-hybrid constructs that express either fusion proteins of the DNA binding domain of GAL4 or the transcription activation domain of GAL4. […] In the middle panel, the transformants carrying the two different fusion proteins were first selected by dextrose synthetic drop-out medium with no supplement of leucine and tryptophan (SD, −leu, −trp, +his) to ensure that in different combinations the transformants have both plasmids. In the lower panel, identical numbers of cells in each combination were also dotted on the same medium without histidine (SD, −leu, −trp, −his). The transformants were allowed to grow at 30° C. for 65 hours.
To begin the test, the NH_2-terminal domain and COOH-terminal domain of Kv1.4 (RCK4) were subcloned. These truncated cytoplasmic fragments, i.e., the NH_2-terminal domain (a.a. 1–306) and COOH-terminal domain (a.a. 566–651), were expressed individually with Kvβ2 as GAL4 fusion proteins. […]
Similar results were obtained using a β-galactosidase assay (data not shown). Thus, like Kvβ1, Kvβ2 was determined to interact with the NH_2-terminal domain of the Kv1.4 α-subunit.

Experiment [2] addresses T1, NH2-terminal domain of Drosophila Shal2 …. As to the kind of experiment: yeast two-hybrid, growth on medium lacking histidine.
From the text: as §1, with “6B” for “6A”
(§2) In the case of Kvβ1, its subfamily-specific association with the NH_2-terminal domains of Kv1 α-subunits is essential for the Kvβ1-mediated inactivation. […] What is not known, however, is whether the failure to detect the Kv2.1-Kvβ2 complex is due to the incompatibility of these two subunits to interact or their limited overlapping expression in vivo. To test the specificity of the Kvβ2-α (interaction, pairwise combinations of Kvβ2 and the NH_2-terminal domains of eight different α-subunits were analyzed in the yeast two hybrid system. The eight α-subunits included were: ShB (Kamb et al., *Cell*, 50, 405–413 (1987); Pongs et al., *EMBO J.*, 7, (1988); Tempel et al., *Science*, 237, 770–775, (1987), Shabll, Shaw2, and Shal2 from Drosophila (Butler et al., *Nucleic Acids Res.*, 18, 2173–2174 (1990); Kv1.4 (or RCK4) (Stuhmer et al., *EMBO J.*, 8, 3235–3244 (1989), Kv2.1 (or DPK1) (Frech et al., *Nature*, 340, 642–645 (1989), Kv3.1 (or NGK2b) (Yokoyama et al., *FEBS Lett.*, 259, 37–42 (1989), and Kv4.2(or rShal1) (Baldwin et al., *Neuron*, 7, 471–483 (1991); Roberds et al., *Proc. Natl. Acad. Sci. USA*, 88, 1798–1802 (1991)) from rat.

Experiment [3] has as its target T2, NH2-terminal domain of DRK1 (a.a. …). Described as above.
From the text: as §1, with “6B” for “6A”
as §2

Experiment [4] addresses T3, NH2-terminal domain of Drosophila Shaw2 …. The description is as above.
From the text: as §1, with “6B” for “6A”
as §2

For experiment [5], the target named is T4, NH2-terminal domain of rshal1 (a.a. …). Described as above.
From the text: as §1, with “6B” for “6A”
as §2

The target of experiment [6] is T5, NH2-terminal domain of NGK2b (a.a. …). The experiment is described as above.
From the text: as §1, with “6B” for “6A”
as §2

The target of experiment [7] is T7, GAL4 transcription activation (TA) domain alone (Saccharomyces cerevisiae (strain ATCC …, UniProt P04386)). As to the kind of experiment: yeast two-hybrid control (FIG. 6A, No. 1), growth on medium lacking histidine.
From the text: as §1
To begin the test, the NH_2-terminal domain and COOH-terminal domain of Kv1.4 (RCK4) were subcloned. These truncated cytoplasmic fragments, i.e., the NH_2-terminal domain (a.a. 1–306) and COOH-terminal domain (a.a. 566–651), were expressed individually with Kvβ2 as GAL4 fusion proteins. Using this methodology, if Kvβ2 were to interact with one or both truncated Kv1.4 fragments, the resultant interaction(s) would confer the ability upon the yeast transformants to grow on synthetic medium lacking histidine. Table 2 below defines the conditions of the yeast two-hybrid system in FIG. 6A.

For experiment [8], the target named is T6, COOH-terminal domain of RCK4 (CRCK4, …). Description: yeast two-hybrid, growth on medium lacking histidine.
From the text: as §1, with “6B” for “6A”
as §2

Experiment [9] has as its target T7, GAL4 transcription activation (TA) …. Description: yeast two-hybrid control, growth on medium lacking histidine. From the text: (§3) Figure 2: FIG. 2 depicts the results of a yeast two-hybrid assay wherein YGH1 yeast cells were transformed by different pairwise combinations of the two-hybrid constructs that express either fusion proteins of the DNA binding domain of GAL4 or the transcription activation domain of GAL4. […] In the middle panel, the transformants carrying the two different fusion proteins were first selected by dextrose synthetic drop-out medium with no supplement of leucine and tryptophan (SD, −leu, −trp, +his) to ensure that in different combinations the transformants have both plasmids. In the lower panel, the identical number of cells in each combination were also dotted on the same medium without histidine (SD, −leu, −trp, −his). The transformants were allowed to grow at 30° C. for 65 hours.
(§4) Cytoplasmic NH_2— and COOH— terminal domains of different α-subunits were subcloned and expressed as fusion proteins of the GAL4 DNA binding (DB) domain. Kvβ1 was expressed as a fusion protein of either the GAL4 DNA binding (DB) domain or transcription activation (TA) domain. […] When Kvβ1 was coexpressed with the NH_2-terminal domain of RCK4 (NRCK4) (a.a. 1–306; an α-subunit sensitive to Kvβ1-mediated inactivation), the yeast transformants grew on a selective medium (FIG. 2, No. 1).

Experiment [10] concerns the target GAL4 DNA binding (DB) domain alone (Saccharomyces cerevisiae (strain ATCC …, UniProt P04386)). The experiment is described as above.
From the text: as §3, §4

Take B1: the “percent of recorded cells with fast inactivation, whole cell voltage clamp recording of transfected COS cells” value in the experiment with ShBΔ(6-46) and in the experiment with Kvβ1 (a.a. 1-401) was 22.5 % of cells throughout.
For B2, the binding result in experiment [1], in [2], in experiment [3], in experiment [4], in [5] and in experiment [6] was “no binding” throughout. Moreover, the binding result in experiment [7] was “no binding”.
For B3, the “percent of recorded cells with fast inactivation, whole cell voltage clamp recording of transfected COS cells” value in the experiment with ShBΔ(6-46) and in the experiment with Kvβ1 (a.a. 1-401) was 61 % of cells each time.
As for B4, the binding result in experiment [3], in experiment [5], in experiment [8], in experiment [6], in experiment [9] and in [10] was “no binding” throughout.
